Our source for the repressor activity in the UAS-luciferase reporter assay in COS-7 cells, with increasing amounts of co-transfected Grg4 and fold reduction of the interaction with Grg4 compared to the full-length protein values is patent US20040048377A1.

mouse Grg4, sequence (Q62441 whole entry): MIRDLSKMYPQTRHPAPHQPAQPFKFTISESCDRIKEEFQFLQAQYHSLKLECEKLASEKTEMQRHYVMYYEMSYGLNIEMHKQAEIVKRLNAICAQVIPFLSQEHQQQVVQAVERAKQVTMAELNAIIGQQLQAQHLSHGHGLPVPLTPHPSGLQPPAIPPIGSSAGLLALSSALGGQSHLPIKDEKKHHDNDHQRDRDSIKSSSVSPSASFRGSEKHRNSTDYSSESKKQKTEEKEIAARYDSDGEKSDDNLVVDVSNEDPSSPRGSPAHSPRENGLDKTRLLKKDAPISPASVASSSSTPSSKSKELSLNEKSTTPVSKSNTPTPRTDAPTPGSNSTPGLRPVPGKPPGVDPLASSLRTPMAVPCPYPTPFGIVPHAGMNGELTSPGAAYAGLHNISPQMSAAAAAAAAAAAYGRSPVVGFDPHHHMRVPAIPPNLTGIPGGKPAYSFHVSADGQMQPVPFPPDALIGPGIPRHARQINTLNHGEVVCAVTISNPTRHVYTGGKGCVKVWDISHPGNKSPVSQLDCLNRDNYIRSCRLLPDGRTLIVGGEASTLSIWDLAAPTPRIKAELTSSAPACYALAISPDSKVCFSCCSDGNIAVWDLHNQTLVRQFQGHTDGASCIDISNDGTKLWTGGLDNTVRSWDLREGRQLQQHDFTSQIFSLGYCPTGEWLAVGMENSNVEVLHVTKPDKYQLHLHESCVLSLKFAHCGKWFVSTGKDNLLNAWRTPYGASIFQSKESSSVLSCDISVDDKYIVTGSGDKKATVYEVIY

The target of one test is mouse Grg4 (mouse) (UniProt Q62441). As to the kind of experiment: cell-based or functional assay.
mouse Grg4 (mouse), sequence (Q62441 whole entry, the tested form may be a part): as the sequence (Q62441 whole entry) above
In turn, “Gal-Nkx2.2 (full-length Nkx2.2 fused to the DNA binding domain of yeast Gal4) (from UniProt P04386 1-147)” displayed a repressor activity in the UAS-luciferase reporter assay in COS-7 cells, with increasing amounts of co-transfected Grg4 of less than 10 fold.

Turning to “Gal-Nkx2.9 (full-length Nkx2.9 fused to the DNA binding domain of yeast Gal4) (from UniProt P04386 1-147; O70584 1-235)”, the repressor activity in the UAS-luciferase reporter assay in COS-7 cells, with increasing amounts of co-transfected Grg4 is less than 10 fold.

Consider “Gal-Nkx6.1 (full-length Nkx6.1 fused to the DNA binding domain of yeast Gal4) (from UniProt P04386 1-147; O35762 1-365)”, for which the repressor activity in the UAS-luciferase reporter assay in COS-7 cells, with increasing amounts of co-transfected Grg4 was less than 10 fold.

“Gal-Nkx6.1ΔTN (Nkx6.1 lacking aa 90-113 fused to the DNA binding domain of yeast Gal4) (from UniProt P04386 1-147; O35762 1-89; O35762 114-365)” yielded a repressor activity in the UAS-luciferase reporter assay in COS-7 cells, with increasing amounts of co-transfected Grg4 of 2 fold.

In turn, “Gal-Nkx6.2 (full-length Nkx6.2 fused to the DNA binding domain of yeast Gal4) (from UniProt P04386 1-147; P43688 1-289)” registered a repressor activity in the UAS-luciferase reporter assay in COS-7 cells, with increasing amounts of co-transfected Grg4 of less than 10 fold.

The substance “Gal-Nkx6.2ΔTN (Nkx6.2 lacking aa 2-73 fused to the DNA binding domain of yeast Gal4) (from UniProt P04386 1-147)” came in with a repressor activity in the UAS-luciferase reporter assay in COS-7 cells, with increasing amounts of co-transfected Grg4 of 2 fold.

For a further test, the target named is Nkx6.1ΔTN (Nkx6.1 with the TN domain deleted, Δaa 90-113) (rat) (UniProt O35762). As to the kind of experiment: immuno-precipitation, 35S-labelled Grg4, Nkx protein on antibody-proteinA-sepharose.
Nkx6.1ΔTN (Nkx6.1 with the TN domain deleted, Δaa 90-113) (rat), sequence (O35762 other isoform, or with tags, fused parts or gaps mutant): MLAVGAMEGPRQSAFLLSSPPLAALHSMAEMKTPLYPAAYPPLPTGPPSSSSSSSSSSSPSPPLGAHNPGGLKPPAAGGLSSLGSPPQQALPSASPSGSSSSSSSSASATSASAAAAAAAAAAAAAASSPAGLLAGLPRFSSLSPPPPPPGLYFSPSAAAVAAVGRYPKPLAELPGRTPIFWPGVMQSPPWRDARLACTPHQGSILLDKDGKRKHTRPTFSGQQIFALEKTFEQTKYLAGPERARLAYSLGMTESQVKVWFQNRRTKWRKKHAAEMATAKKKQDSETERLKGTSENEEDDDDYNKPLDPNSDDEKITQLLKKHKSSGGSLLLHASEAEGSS
For mouse Grg4 (from UniProt Q62441 1-773), the fold reduction of the interaction with Grg4 compared to the full-length protein stood at 5 fold.
